Test results from patent publication US20220288169A1, “COMPOSITIONS AND METHODS FOR THE TREATMENT AND PREVENTION OF HYPOGLYCEMIC COMPLICATIONS” (The Board of Supervisors of Louisiana State University and …, priority 2019, published 2022).
Several values for one entry are separate records, joined by “and”; a condition that tells them apart may be missing. Equal values may be shown once. Entries after “also recorded” stand apart in the source; their conditions may differ. Read-outs that look alike come from different tables or passages of the source.

How the values were obtained:
[1] = system: male C57BL/6J mice exposed to 60% caloric restriction (CR mice); assay type: in vivo, mouse
Procedure: In order to overcome differences in baseline blood glucose levels between groups, a variable dose of insulin (IP) was used to produce equivalent exposure to hypoglycemia (A). […] Data were analyzed via one or two way ANOVA. Group differences were determined via Bonferroni's multiple comparison test with significance levels as follows: *- p<0.05; n=7-8/group. A total of 149 mice were subjected to the severe caloric restriction and refeeding paradigm across four separate experiments. The following procedures were identical across all four experiments. Animals were randomly assigned to one of two groups: Mice exposed to severe caloric restriction for six days (CR mice) or ad libitum fed mice (Ad-lib mice). […] Following a five-day acclimation period to wire-bottomed cages (Days 0-4), food intake was monitored daily in each mouse for six days prior to initiation of caloric restriction, and each mouse's average daily food intake was determined (Days 5-10). […] Body weight and free-living blood glucose were measured daily immediately prior to feeding. […] During the refeeding period, food intake, free-living blood glucose, and body weight continued to be measured daily at 1.5 h before lights off in both CR and Ad-lib mice up to the terminal day of the experiments. […] Rat leptin levels were determined by […], MilliporeSigma, St. Louis, Mo.). […]

[2] = system: male Sprague Dawley rats exposed to 3dRH (rat model of HAAF); assay type: in vivo
Procedure: For Experiment 5, a total of 21 rats were subjected to a three day recurrent hypoglycemia (3dRH) paradigm adapted from previous studies (44). […] On each of the three days of the paradigm, all rats received an IP injection of either PBS or leptin at ≈1.5 h prior to lights off. […] On the fourth day, all three cohorts of rats were then subjected to a hypoglycemic ITT for determination of hypoglycemia-induced epinephrine, glucagon, and corticosterone secretion. Leptin levels were also assayed in each group at the conclusion of the ITT. […] For mice, trunk blood was collected following CO2 euthanasia. […] Louis, Mo.). […] Rat leptin levels were determined by […], MilliporeSigma, St. Louis, Mo.). […] Methods: In experiment one, 3 groups of mice (two CR groups and one ad-lib fed control group) received either twice daily leptin (0.5-1 μg/g, IP) or PBS. In experiment two, 3 groups of rats (two 3dRH and one control) received daily leptin or PBS injections (0.3-0.7 mg/kg, IP).

[3] = system: rats exposed to a single bout of hypoglycemia or 3dRH; conditions: cited from earlier work
starved rats = conditions: acute leptin infusion during starvation, cited from earlier work
[4] = acute ICV leptin in 3dRH rats, first 40 min of 90 min hypoglycemic challenge, relative to 3dRH rats not treated with leptin
[5] = acute ICV leptin infusion, rats exposed to a single bout of hypoglycemia

B1: leptin (protein, UniProt P50596 22-167, looked up)
Leptin: VPIHKVQDDTKTLIKTIVTRINDISHTQSVSARQRVTGLDFIPGLHPILSLSKMDQTLAVYQQILTSLPSQNVLQIAHDLENLRDLLHLLAFSKSCSLPQTRGLQKPESLDGVLEASLYSTEVVALSRLQGSLQDILQQLDLSPEC
notes: hormone secreted by adipocytes
- hypoglycemia-induced glucagon levels ([1]; CR+Leptin mice, twice daily IP leptin 0.5-1 μg/g during CR, 60 min of ITT, Day 1 of refeeding, mean (SD)): 91.7 pmol/L and 78.1 pmol/L
- serum glucagon levels in response to the ITT ([1]; Example 7, leptin-treated CR mice, 0.5-1 μg/g IP twice daily, after 16 h refeeding and 6 h fast): 78.0 ± 16.8 pg/mL
- hypoglycemia-induced glucagon levels ([2]; 3dRH paradigm with leptin): not affected
- hypoglycemia-induced glucagon levels ([2]; 3dRH+Leptin rats, 60 min of ITT, mean (SD)): 34 pmol/L
- increase of epinephrine levels relative to untreated 3dRH rats ([2]; leptin concurrent with antecedent hypoglycemia): 50%
- leptin levels at the 60-minute time point relative to controls ([2]; rat, in vivo): significantly increased
- serum leptin levels at the conclusion of the ITT ([2]; rat, in vivo): 5.1 ng/mL
- epinephrine levels increased by [3, 4]: 25%
- glucagon levels increased by [3, 4]: 45%
- epinephrine levels increased by [3, 5]: 19%
- glucagon levels decreased by [3, 5]: 50%
- rescue of counter-regulation by acute leptin ([3]; acute leptin administration, 3dRH rats): did not restore counter-regulation; also recorded: does not reverse the effects of 3dRH; also recorded: did not correct the deficit in epinephrine release; also recorded: does not rescue the effect
- epinephrine levels lower than untreated rats exposed to a single bout of hypoglycemia ([3]; leptin treated 3dRH rats): 60%
- effect on blood glucose (starved rats; physiological doses): reducing blood glucose
- effect on blood glucose (starved rats; supraphysiological doses): increasing blood glucose
